Biological target: T1, COP1-His recombinant protein (Arabidopsis thaliana, UniProt P43254 1-675)
T1 sequence (looked up): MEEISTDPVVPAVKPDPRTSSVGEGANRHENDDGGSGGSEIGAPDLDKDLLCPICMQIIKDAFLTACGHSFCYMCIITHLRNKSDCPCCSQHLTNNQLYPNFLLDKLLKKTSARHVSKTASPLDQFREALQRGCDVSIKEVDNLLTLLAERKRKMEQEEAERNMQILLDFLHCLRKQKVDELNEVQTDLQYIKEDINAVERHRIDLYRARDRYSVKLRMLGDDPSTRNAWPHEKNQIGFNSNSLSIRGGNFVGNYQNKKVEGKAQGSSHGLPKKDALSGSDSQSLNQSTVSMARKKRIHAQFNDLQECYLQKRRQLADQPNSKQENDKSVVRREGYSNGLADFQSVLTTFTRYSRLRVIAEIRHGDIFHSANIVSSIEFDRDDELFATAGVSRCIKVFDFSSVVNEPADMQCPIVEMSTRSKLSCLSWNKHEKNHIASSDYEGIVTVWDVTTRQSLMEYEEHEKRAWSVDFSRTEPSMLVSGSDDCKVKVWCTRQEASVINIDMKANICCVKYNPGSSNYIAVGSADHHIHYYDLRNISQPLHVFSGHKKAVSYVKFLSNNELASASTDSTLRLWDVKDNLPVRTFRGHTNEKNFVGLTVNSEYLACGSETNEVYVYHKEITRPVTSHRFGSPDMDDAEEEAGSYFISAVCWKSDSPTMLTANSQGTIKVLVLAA
Assay: pull-down

binding result: binds
B1: GST-HDA15 recombinant protein (enzyme, Arabidopsis thaliana, UniProt Q8GXJ1 1-552, looked up)
chain: MVVETIERSCEGSKRRHVNGGDIAVPCSGEECSNGDINVAPGVSAKRARVSREMTFEDIYGADALLNDDDDEDDDCDWEPVQAPMEFVKWCCVNCTMSNPGDMVHCCICGEHKESGILRHGYLASPFFKDTGLIEVEEKYGGSSSATSSTAVGFDERMLLHSEFEVKAQPHPERPDRLRAIAASLATAGVFPGRCLPINAREITKQELQMVHTSEHVDAVDTTSQLLYSYFTSDTYANEYSARAARLAAGLCADLATDIFTGRVKNGFALVRPPGHHAGVRHAMGFCLHNNAAVAALVAQAAGAKKVLIVDWDVHHGNGTQEIFEQNKSVLYISLHRHEGGNFYPGTGAADEVGSNGGEGYCVNVPWSCGGVGDKDYIFAFQHVVLPIASAFSPDFVIISAGFDAARGDPLGCCDVTPAGYSRMTQMLGDLCGGKMLVILEGGYNLRSISASATAVIKVLLGENPENELPIATTPSVAGLQTVLDVLNIQLEFWPSLAISYSKLLSELEARLIENKKNQMKRKVVRVPTWWKWGRKKLLYNFLSARMISRSK

— doi:10.1101/2020.08.07.241737 (bioRxiv, 2020)
